Patent publication US20100322935A1 (Hoffmann-La Roche, published 2010)

Legend:
[1] = biological target: T1, human EGFR ECD (Extracellular Domain) (human, UniProt P00533 25-645); experiment: SPR (Biacore T100)
T1 construct: extracellular domain; also called EGFR (HER1); HER1
Source text: (§1) Briefly, for affinity measurements Goat-Anti-Human IgG, JIR 109-005-098 antibodies were immobilized on a CM5 chip via amine coupling for presentation of the antibodies against human ECD-Fc tagged. […] Biacore T100 Evaluation Software version 1.1.1 was used for analysis of sensorgrams and for calculation of affinity data.
(§2) Binding of the generated antibodies to human ANGPT2 and VEGF was also investigated by surface plasmon resonance using a BIACORE T100 instrument (GE Healthcare Biosciences AB, Uppsala, Sweden). Briefly, for affinity measurements goat<hIgG-Fcg> polyclonal antibodies were immobilized on a CM5 or CM4 chip via amine coupling for presentation of the antibodies against human ANGPT2 and VEGF. […] Biacore T100 Evaluation Software version 1.1.1 was used for analysis of sensorgrams and for calculation of affinity data.

[2] = biological target: T2, human VEGF165/VEGF121-His (human, UniProt P15692-4 27-191, limits assumed); experiment: SPR (Biacore T100)
T2 construct: R&D Systems or in house purified; also called VEGF-A; hVEGF
T2 sequence (P15692 other isoform, or with tags, fused parts or gaps limits assumed): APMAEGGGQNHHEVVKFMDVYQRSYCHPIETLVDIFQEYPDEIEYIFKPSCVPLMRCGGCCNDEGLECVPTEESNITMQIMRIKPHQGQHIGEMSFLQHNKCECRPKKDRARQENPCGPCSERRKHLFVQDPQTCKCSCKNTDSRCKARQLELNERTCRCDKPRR
Source text: as §1, §2

Kd [1]: 6 nM | koff [1]: 0.00023 s⁻¹ | kon [1]: 47000 M⁻¹ s⁻¹ | Kd [2]: < 0.1 nM | koff [2]: < 1e-06 s⁻¹ | kon [2]: 100000 M⁻¹ s⁻¹
B1: trispecific and tetravalent antibody recognizing Angiopoietin-2, VEGF-A, and EGFR according to FIG. 5a (antibody, human IgG1, kappa)
light 1: QPGLTQPPSVSVAPGQTARITCGGNNIGSKSVHWYQQKPGQAPVLVVYDDSDRPSGIPERFSGSNSGNTATLTISRVEAGDEADYYCQVWDSSSDHYVFGTGTKVTVLRTVAAPSVFIFPPSDEQLKSGTASVVCLLNNFYPREAKVQWKVDNALQSGNSQESVTEQDSKDSTYSLSSTLTLSKADYEKHKVYACEVTHQGLSSPVTKSFNRGEC
heavy 1: not shown
light 2: DIQMTQSPSSLSASVGDRVTITCSASQDISNYLNWYQQKPGKAPKVLIYFTSSLHSGVPSRFSGSGSGTDFTLTISSLQPEDFATYYCQQYSTVPWTFGQGTKVEIKSSASTKGPSVFPLAPSSKSTSGGTAALGCLVKDYFPEPVTVSWNSGALTSGVHTFPAVLQSSGLYSLSSVVTVPSSSLGTQTYICNVNHKPSNTKVDKKVEPKSC
heavy 2: not shown
notes: Trispecific, tetravalent: four different chains, each once; CH1/CL (Ckappa) domain exchanged knobs-into-holes antibody; scFvs fused via a (G4S)4 connector; Expressed in HEK293F cells; also called trispecific antibody with disulfide stabilized scFv against EGFR on both heavy chains
